From patent publication US20210301025A1 (published 2021)
Changes are numbered by the printed parent chain.

B1: ECB107 (designed binder, not shown: small tags and cut ends)
chain: MLPAPKNLVVSEVTEDSARLSWDDPHAFYESFLIQYQESEKVGEAIVLTVPGSERSYDLTGLKPGTEYTVSIYGVHNVYKDTNIRGLPLSAIFTTAPAPAPAPAPLPAPKNLVVSRVTEDSARLSWTAPDAAFDSFWIRYFEFVGSGEAIVLTVPGSERSYDLTGLKPGTEYVVNILGVKGGSISPPLSAIFTT
notes: Bispecific: P54AR4-83v23, (AP)5, P114AR9P121-A6v2
B2: ECB108 (designed binder, not shown: small tags and cut ends)
chain: B1 chain with G145S, S146K, E148D
notes: Bispecific: P54AR4-83v23, (AP)5, P114AR9P122-A7v2
B3: ECB109 (designed binder, not shown: small tags and cut ends)
chain: B1 chain with V144L, G178S
notes: Bispecific: P54AR4-83v23, (AP)5, P114AR7P95-C5v2
B4: P54AR4-81 (designed binder, not shown: small tags and cut ends)
chain: LPAPKNLVVSEVTEDSLRLSWDYDLGVYFDSFLIQYQESEKVGEAINLTVPGSERSYDLTGLKPGTEYTVSIYGVHNVYKDTNMRGLPLSAEFTT
B5: P53A1R5-17 (designed binder, not shown: small tags and cut ends)
chain: LPAPKNLVVSEVTEDSLRLSWADPHGFYDSFLIQYQESEKVGEAINLTVPGSERSYDLTGLKPGTEYTVSIYGVHNVYKDTNMRGLPLSAEFTT
B6: P54AR4-48 (designed binder, not shown: small tags and cut ends)
chain: B5 chain with A22D, H25R, D29E
B7: P54AR4-83 (designed binder, not shown: small tags and cut ends)
chain: B5 chain with A22D, H25W, G26A, D29E
B8: P54AR4-17 (designed binder, not shown: small tags and cut ends)
chain: B5 chain with A22T, D23Y, P24D, H25R, G26D, F27G
B9: P54AR4-74 (designed binder, not shown: small tags and cut ends)
chain: B5 chain with A22G, D23Y, P24N, H25G, G26D, F27H, Y28F
B10: P54AR4-73 (designed binder, not shown: small tags and cut ends)
chain: B5 chain with A22T, D23W, H25Y, G26A, F27D, Y28L
notes: also called P54AR4-37
B11: P54CR4-31 (designed binder, not shown: small tags and cut ends)
chain: LPAPKNLVVSEVTEDSLRLSWTAPDAAFDSFLIQYQESEKVGEAINLTVPGSERSYDLTGLKPGTEYTVSIYGVLGSYVFEHDVMLPLSAEFTT
B12: ECB147v3-PEG24 (designed binder)
chain: MLPAPKNLVVSEVTEDSARLSWDDPWAFYESFLIQYQESEKVGEAIVLTVPGSERSYDLTGLCPGTEYTVSIYGVHNVYKDTNMRGLPLSAIFTTAPCPAPAPAPLPAPKNLVVSRVTEDSARLSWTAPDAAFDSFWIRYFEFLGSGEAIVLTVPGSERSYDLTGLCPGTEYVVNIMSVKGGSISPPLSAIFTTAPCPAPAPAPLAEAKVLANRELDKYGVSDYYKNLINNAKTVEGVKALLDEILAALP
modifications: PEG24-maleimide on the engineered cysteines
B13: ECB147v6-PEG24 (designed binder)
chain: B12 chain with C98A, C167K, C197A
modifications: PEG24-maleimide on the engineered cysteine
B14: ECB147v5-PEG24 (designed binder)
chain: B12 chain with C98A, C197A
modifications: PEG24-maleimide on the engineered cysteines
B15: ECB147v7-PEG24 (designed binder)
chain: B12 chain with C63K, C167K
modifications: PEG24-maleimide on the engineered cysteines

These binders were tested against T1, recombinant c-Met extracellular domain (human, UniProt P08581 16-932) (assay: SPR (ProteOn) per Example 3).
T1 construct: Construct used for SPR is not described further (may be the Fc chimera, as the protocol captures on anti-human Fc)
Excerpt: (§1) Select EGFR/c-Met molecules were characterized for their affinity to both EGFR and c-Met, their ability to inhibit EGFR and c-Met autophosphorylation, and their effect on proliferation of HGF cells. Binding affinity of the bispecific EGFR/c-Met molecules to recombinant EGFR and/or c-Met extracellular domain was further by surface Plasmon resonance methods using a Proteon Instrument (BioRad) according to protocol described in Example 3.
B1 was tested, and the Kd was 9 nM. B2 showed a Kd of 25.5 nM. B3 gave a Kd of 2.1 nM.

What follows are binders tested against T2, recombinant human extracellular domain of EGFR fused to an IgG1 Fc (human, UniProt P00533 25-645) (assay: SPR (ProteOn) per Example 3).
T2 construct: Bought (R&D Systems); captured on anti-human Fc IgG for SPR; also called EGFR-Fc
Excerpt: as §1
In the case of B1, the Kd is reported as 16.9 nM. B2 was tested, and the Kd was 15.3 nM. With B3 the Kd was 17.3 nM.

What follows are binders tested against T3, human EGFR on cells (A431, NCI-H292, NCI-H322, NCI-H441) (human, UniProt P00533 25-1210) (assay: A431 cell binding, anti-His-Alexa488 fluorescence).
T3 construct: Endogenous EGFR of human tumor cell lines; also called HER-1; Erb-B1
Procedure: A431 cells were plated at 5,000/well in opaque black 96-well plates and allowed to attach overnight at 37° C., in a humidified 5% CO₂ atmosphere. […] Supernatant was removed and cells were washed 3 times with 150 μL/well of FACS stain buffer. Cells were incubated with 50 μL/well of anti-penta His-Alexa488 antibody conjugate (Qiagen) diluted 1:100 in FACS stain buffer for 20 minutes at room temperature. Cells were washed 3 times with 150 μL/well of FACS stain buffer, after which wells were filled with 100 μL of FACS stain buffer and read for fluorescence at 488 nm using an Acumen eX3 reader. Data were plotted as raw fluorescence signal against the logarithm of the FN3 domain molar concentration and fitted to a sigmoidal dose-response curve with variable slope using GraphPad Prism 4 (GraphPad Software) to calculate EC₅₀ values.
B4 showed an EC50 of 84 nM. B5 was tested, and the EC50 was 4 nM. In the case of B6, the EC50 is reported as 12 nM. Work on B7 yielded an EC50 of 2.2 nM. In the case of B8, the EC50 is reported as 16 nM. Binder B9 has an EC50 of 77 nM. B10 was tested, and the EC50 was 9.4 nM.

Each binder was assayed against T3, human EGFR on cells (A431, NCI-H292, …) (assay: cell-based or functional assay).
For B11, the “NCI-H292 Growth IC50” value was 1150 nM, the “NCI-H322 Growth IC50” value was over 3070 nM and the “Phospho-EGFR IC50 (A431 cells)” value was 179 nM. For B5, the “NCI-H292 Growth IC50” value was 86 nM, the “NCI-H322 Growth IC50” value was 65 nM and the “Phospho-EGFR IC50 (A431 cells)” value was over 2500 nM. For B6, the “Phospho-EGFR IC50 (A431 cells)” value was 170 nM. For B7, the “NCI-H292 Growth IC50” value was 5.9 nM, the “NCI-H322 Growth IC50” value was 9.2 nM and the “Phospho-EGFR IC50 (A431 cells)” value was 18 nM. In the case of B8, the “Phospho-EGFR IC50 (A431 cells)” value is reported as 184 nM. B10 was tested, and the “NCI-H292 Growth IC50” value was 83 nM, the “NCI-H322 Growth IC50” value was 73 nM and the “Phospho-EGFR IC50 (A431 cells)” value was 141 nM.

The binders below were run against T4, human c-Met on cells (NCI-H441, NCI-H292, U87-MG) (human, UniProt P08581 25-1390) (assay: cell-based or functional assay).
B12 was tested, and the “IC50 of inhibition of HGF-stimulated c-Met phosphorylation, NCI-H292 cells” value was 0.5 nM. With B13 the “IC50 of inhibition of HGF-stimulated c-Met phosphorylation, NCI-H292 cells” value was 0.4 nM. For B14, the “IC50 of inhibition of HGF-stimulated c-Met phosphorylation, NCI-H292 cells” value was 0.4 nM. B15 was tested, and the “IC50 of inhibition of HGF-stimulated c-Met phosphorylation, NCI-H292 cells” value was 0.5 nM.

Target: T3, human EGFR on cells (A431, NCI-H292, …)
Test: cell-based or functional assay
Remark: another data set of the same source
For B12, the “IC50 of inhibition of EGF-stimulated EGFR phosphorylation, NCI-H292 cells” value was 1.6 nM. B13 was tested, and the “IC50 of inhibition of EGF-stimulated EGFR phosphorylation, NCI-H292 cells” value was 1.4 nM. For B14, the “IC50 of inhibition of EGF-stimulated EGFR phosphorylation, NCI-H292 cells” value was 0.9 nM. For B15, the “IC50 of inhibition of EGF-stimulated EGFR phosphorylation, NCI-H292 cells” value was 1.4 nM.

What follows are binders tested against T2, recombinant human extracellular domain … (assay: SPR (ProteOn), EGFR-Fc captured on anti-human Fc IgG).
Procedure: Select EGFR-binding FN3 domains were screened to identify those with slow off-rates (koff) in binding to EGFR-Fc on a ProteOn XPR-36 instrument (Bio-Rad) to facilitate selection of high affinity binders. Goat anti-human Fc IgG (R&D systems), at a concentration of 5 μg/mL, was directly immobilized via amine coupling (at pH 5.0) on all 6 ligand channels in horizontal orientation on the chip with a flow rate of 30 μL/min in PBS containing 0.005% Tween-20. The immobilization densities averaged about 1500 Response Units (RU) with less than 5% variation among different channels. EGFR-Fc was captured on the anti-human Fc IgG surface to a density around 600 RU in vertical ligand orientation. All tested FN3 domains were normalized to a concentration of 1 μM and tested for their binding in horizontal orientation. All 6 analyte channels were used for the FN3 domains to maximize screening throughput. The dissociation phase was monitored for 10 minutes at a flow rate of 100 μL/min. The inter-spot binding signals were used as references to monitor non-specific binding between analytes and the immobilized IgG surface, and were subtracted from all binding responses. The processed binding data were locally fit to a 1:1 simple Langmuir binding model to extract the koff for each FN3 domain binding to captured EGFR-Fc.
Binding affinity of selected EGFR-binding FN3 domains to recombinant EGFR extracellular domain was further characterized by surface Plasmon resonance methods using a Proteon Instrument (BioRad). The assay set-up (chip preparation, EGFR-Fc capture) was similar to that described above for off-rate analysis. Selected EGFR binding FN3 domains were tested at 1 μM concentration in 3-fold dilution series in the horizontal orientation. A buffer sample was also injected to monitor the baseline stability.
B11 gave a Kd of 0.383 nM. For B5, the Kd was 1.89 nM. Binder B6 has a Kd of 7.78 nM. Work on B7 yielded a Kd of 0.255 nM. In the case of B8, the Kd is reported as 9.62 nM. B10 gave a Kd of 0.197 nM.

Each binder was assayed against T3, human EGFR on cells (A431, NCI-H292, …) (assay: A431 cell competition with biotinylated EGF).
Procedure: A431 cells were plated at 5,000/well in opaque black 96-well plates and allowed to attach overnight at 37° C., in a humidified 5% CO₂ atmosphere. […] Cells were washed 3 times with 150 μL/well of FACS stain buffer. Cells were incubated with 50 μL/well of streptavidin-phycoerythrin conjugate (Invitrogen) diluted 1:100 in FACS stain buffer for 20 minutes at room temperature. Cells were washed 3 times with 150 μL/well of FACS stain buffer, after which wells were filled with 100 μL of FACS stain buffer and read for fluorescence at 600 nm using an Acumen eX3 reader. Data were plotted as the raw fluorescence signal against the logarithm of FN3 domain molar concentration and fitted to a sigmoidal dose-response curve with variable slope using GraphPad Prism 4 (GraphPad Software) to calculate IC₅₀ values.
With B4 the IC50 was 121 nM. In the case of B11, the IC50 is reported as 55 nM. B5 was tested, and the IC50 was 9.8 nM. B6 showed an IC50 of 9.8 nM. Binder B7 has an IC50 of 1.8 nM. B8 was tested, and the IC50 was 21 nM. Binder B10 has an IC50 of 4.6 nM.

Target: T3, human EGFR on cells (A431, NCI-H292, …)
Test: cell-based or functional assay
Remark: another data set of the same source
With B1 the “pEGFR inhibition in H292 cells IC50” value was 812 nM. B2 was tested, and the “pEGFR inhibition in H292 cells IC50” value was 814 nM. B3 was tested, and the “pEGFR inhibition in H292 cells IC50” value was 432 nM.

Target: T4, human c-Met on cells (NCI-H441, …)
Test: cell-based or functional assay
Remark: another data set of the same source
With B1 the “pMet inhibition in H441 cells IC50” value was 29.9 nM. B2 was tested, and the “pMet inhibition in H441 cells IC50” value was 126 nM. B3 was tested, and the “pMet inhibition in H441 cells IC50” value was 26 nM.
